Positions count from the first letter of the chain named. In names and notes the source's numbering stands.
B1: MTSP-1 H40R/I41H/F97D/F99L/C122S/G151N/Q175M/Q192A/D217N/K224R (enzyme)
chain: VVGGTDADEGEWPWQVSLHALGQGRHCGASLISPNWLVSAAHCYIDDRGFRYSDPTQWTAFLGLHDQSQRSAPGVQERRLKRIISHPFFNDDTLDYDIALLELEKPAEYSSMVRPISLPDASHVFPAGKAIWVTGWGHTQYGGTNALILQKGEIRVINQTTCENLLPQMITPRMMCVGFLSGGVDSCAGDSGGPLSSVEADGRIFQAGVVSWGNGCAQRNRPGVYTRLPLFRDWIKENTGV
B2: MTSP-1 I41R/F99L/C122S/Q192G (enzyme)
chain: B1 chain with R25H, H26R, D92F, N145G, M169Q, A188G, N214D, R221K
B3: MTSP-1 H40K/I41M/F97D/F99L/C122S/G151N/Q175L/Q192A/D217N/K224R (enzyme)
chain: B1 chain with R25K, H26M, M169L
B4: MTSP-1 H40R/I41H/F97D/F99L/C122S/Q175R/Q192G/D217H/K224S (enzyme)
chain: B1 chain with N145G, M169R, A188G, N214H, R221S
B5: MTSP-1 H40R/I41H/F99L/C122S/G151K/Q192G (enzyme)
chain: B1 chain with D92F, N145K, M169Q, A188G, N214D, R221K
B6: MTSP-1 H40R/I41H/F97D/F99L/C122S/G151N/Q175L/Q192A/D217N/K224R (enzyme)
chain: B1 chain with M169L
B7: MTSP-1 H40K/I41M/F99L/C122S/T150A/G151R/Q192G (enzyme)
chain: B1 chain with R25K, H26M, D92F, T144A, N145R, M169Q, A188G, N214D, R221K
B8: MTSP-1 H40R/I41H/K86R/F97D/K110R/C122S/K134R/G151N/K157R/K224R/K239R (enzyme)
chain: B1 chain with K81R, L94F, K105R, K129R, K151R, M169Q, A188Q, N214D, K236R
B9: MTSP-1 H40R/I41H/F97D/F99L/C122S/Q175M/Q192D/D217N/K224R (enzyme)
chain: B1 chain with N145G, A188D
B10: MTSP-1 H40R/I41H/F97D/C122S/G151N/L153R/V202M (enzyme)
chain: B1 chain with L94F, L147R, M169Q, A188Q, V198M, N214D, R221K
B11: MTSP-1 H40R/I41H/F97D/F99L/C122S/G151N/L153R (enzyme)
chain: B1 chain with L147R, M169Q, A188Q, N214D, R221K
B12: MTSP-1 H40R/I41H/F97D/F99L/C122S/G151N/Q192H (enzyme)
chain: B1 chain with M169Q, A188H, N214D, R221K
B13: MTSP-1 H40R/I41H/F97D/C122S/G151N/L153R (enzyme)
chain: B1 chain with L94F, L147R, M169Q, A188Q, N214D, R221K
B14: MTSP-1 H40K/I41M/F97D/F99L/C122S/G151N/Q175M/Q192D/D217N/K224R (enzyme)
chain: B1 chain with R25K, H26M, A188D
B15: MTSP-1 H40K/I41M/F97D/F99L/C122S/G151N/Q175M/Q192A/D217N/K224R (enzyme)
chain: B1 chain with R25K, H26M
B16: MTSP-1 H40K/I41M/F97D/F99L/C122S/Q175M/Q192D/D217N/K224R (enzyme)
chain: B1 chain with R25K, H26M, N145G, A188D
B17: MTSP-1 H40R/I41H/F97D/F99L/C122S/G151N/Q192H/P232S (enzyme)
chain: B1 chain with M169Q, A188H, N214D, R221K, P229S
B18: MTSP-1 H40R/I41H/F97D/F99L/C122S/Q175M/D217N/K224R (enzyme)
chain: B1 chain with N145G, A188Q
B19: MTSP-1 H40R/I41H/F97D/C122S/G133D/G151N (enzyme)
chain: B1 chain with L94F, G128D, M169Q, A188Q, N214D, R221K
B20: MTSP-1 H40K/I41M/F97D/F99L/C122S/Q175M/D217N/K224R (enzyme)
chain: B1 chain with R25K, H26M, N145G, A188Q
B21: MTSP-1 K86R/K110R/C122S/K134R/K157R/K224R/K239R (enzyme)
chain: VVGGTDADEGEWPWQVSLHALGQGHICGASLISPNWLVSAAHCYIDDRGFRYSDPTQWTAFLGLHDQSQRSAPGVQERRLRRIISHPFFNDFTFDYDIALLELERPAEYSSMVRPISLPDASHVFPAGRAIWVTGWGHTQYGGTGALILQRGEIRVINQTTCENLLPQQITPRMMCVGFLSGGVDSCQGDSGGPLSSVEADGRIFQAGVVSWGDGCAQRNRPGVYTRLPLFRDWIRENTGV
B22: MTSP-1 H40R/I41H/F97T/ins97aE/T98G/F99L/C122S/Q175L/Q192E (enzyme)
chain: VVGGTDADEGEWPWQVSLHALGQGRHCGASLISPNWLVSAAHCYIDDRGFRYSDPTQWTAFLGLHDQSQRSAPGVQERRLKRIISHPFFNDTEGLDYDIALLELEKPAEYSSMVRPISLPDASHVFPAGKAIWVTGWGHTQYGGTGALILQKGEIRVINQTTCENLLPQLITPRMMCVGFLSGGVDSCEGDSGGPLSSVEADGRIFQAGVVSWGDGCAQRNKPGVYTRLPLFRDWIKENTGV
B23: MTSP-1 H40R/I41H/F97T/ins97aE/T98G/F99L/C122S/Q175L/Q192G (enzyme)
chain: B22 chain with E189G
B24: MTSP-1 I41R/ins97aE/F97T/T98G/F99L/C122S/G151E/Q175L/Q192E (enzyme)
chain: B22 chain with R25H, H26R, G146E
B25: MTSP-1 H40R/I41H/F97D/ins97aE/T98G/F99L/C122S/Q175L/Q192G (enzyme)
chain: B22 chain with T92D, E189G
B26: MTSP-1 H40R/I41H/F97E/ins97aE/T98G/F99L/C122S/Q175L/Q192G (enzyme)
chain: B22 chain with T92E, E189G
B27: MTSP-1 K86R/F97T/ins97aE/T98G/F99L/K110R/C122S/K134R/K157R/Q175L/Q192E/K224R/K239R (enzyme)
chain: B22 chain with R25H, H26I, K81R, K106R, K130R, K152R, K222R, K237R

Each binder was assayed against plasma purified human complement protein C3 (human) (UniProt P01024) (assay: cell-based or functional assay).
Sequence of plasma purified human complement protein C3 (human) (P01024 23-667, chain 1 of 2): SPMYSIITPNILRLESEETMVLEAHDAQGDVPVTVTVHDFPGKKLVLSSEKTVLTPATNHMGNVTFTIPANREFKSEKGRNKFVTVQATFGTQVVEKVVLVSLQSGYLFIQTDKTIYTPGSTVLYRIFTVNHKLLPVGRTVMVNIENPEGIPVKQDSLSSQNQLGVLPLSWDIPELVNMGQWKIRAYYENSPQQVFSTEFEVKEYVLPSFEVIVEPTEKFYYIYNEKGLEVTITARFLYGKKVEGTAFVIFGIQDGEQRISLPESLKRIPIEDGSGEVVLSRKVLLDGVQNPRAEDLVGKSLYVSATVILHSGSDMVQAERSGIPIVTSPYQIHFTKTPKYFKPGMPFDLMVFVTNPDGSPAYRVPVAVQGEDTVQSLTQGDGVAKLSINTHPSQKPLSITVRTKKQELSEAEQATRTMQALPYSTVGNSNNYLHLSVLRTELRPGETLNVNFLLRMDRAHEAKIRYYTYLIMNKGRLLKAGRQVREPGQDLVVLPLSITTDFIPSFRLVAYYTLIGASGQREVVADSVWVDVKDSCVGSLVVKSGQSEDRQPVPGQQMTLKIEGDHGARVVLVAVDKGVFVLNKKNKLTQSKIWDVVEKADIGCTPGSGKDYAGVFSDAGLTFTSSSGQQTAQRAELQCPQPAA
Sequence of plasma purified human complement protein C3 (human) (P01024 672-1663, chain 2 of 2): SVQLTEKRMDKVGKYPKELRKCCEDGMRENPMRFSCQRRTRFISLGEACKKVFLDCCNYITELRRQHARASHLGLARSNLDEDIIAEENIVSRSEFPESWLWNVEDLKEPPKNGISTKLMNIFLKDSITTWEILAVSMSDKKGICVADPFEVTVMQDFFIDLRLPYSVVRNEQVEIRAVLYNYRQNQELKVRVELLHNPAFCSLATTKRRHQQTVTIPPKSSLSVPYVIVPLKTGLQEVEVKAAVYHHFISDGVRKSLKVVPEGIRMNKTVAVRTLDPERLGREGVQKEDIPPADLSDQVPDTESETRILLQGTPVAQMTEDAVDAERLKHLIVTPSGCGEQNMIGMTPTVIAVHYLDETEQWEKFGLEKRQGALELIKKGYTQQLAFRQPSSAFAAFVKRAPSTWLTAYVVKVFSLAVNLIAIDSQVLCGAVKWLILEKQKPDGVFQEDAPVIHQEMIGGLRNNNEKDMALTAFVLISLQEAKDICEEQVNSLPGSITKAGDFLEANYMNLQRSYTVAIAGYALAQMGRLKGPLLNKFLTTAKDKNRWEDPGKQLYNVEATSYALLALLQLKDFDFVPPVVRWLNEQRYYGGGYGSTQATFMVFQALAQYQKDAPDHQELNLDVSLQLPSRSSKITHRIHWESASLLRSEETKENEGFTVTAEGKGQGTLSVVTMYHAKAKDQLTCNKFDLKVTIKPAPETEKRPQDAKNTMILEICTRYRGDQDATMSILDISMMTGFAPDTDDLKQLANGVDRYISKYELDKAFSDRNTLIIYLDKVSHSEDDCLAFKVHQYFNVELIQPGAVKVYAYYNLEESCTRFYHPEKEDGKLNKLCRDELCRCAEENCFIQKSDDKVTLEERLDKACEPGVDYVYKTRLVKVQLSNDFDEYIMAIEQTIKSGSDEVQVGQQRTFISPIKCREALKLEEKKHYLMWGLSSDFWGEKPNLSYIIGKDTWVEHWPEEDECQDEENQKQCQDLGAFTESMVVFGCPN

Binder	EC50 of hC3 cleavage [nM]
B1	563
B2	53.8
B3	1290
B4	45.2
B5	1520
B6	540
B7	110
B8	304
B9	9990
B10	103
B11	59.9
B12	179
B13	126
B14	9.74
B15	1230
B16	9.64
B17	262
B18	103
B19	60.4
B20	144
B21	17.3
B22	5860
B23	46
B24	126
B25	39.7
B26	82.4
B27	253

From patent publication US20240018502A1
